Measured values reported in patent US20210017277A1 (US Dept. of Health and Human Services, published 2021).

Target: T1, Biotinylated Human Siglec-3/CD33 Protein, Avi Tag (Acro Biosystems) (human, UniProt P20138 18-259, biotinylated (Avi Tag))
T1 construct: Bought reagent; also called biotinalated Siglec-3; not shown: Avi Tag
Test: flow cytometry: CAR-transduced T cells stained with biotinylated human Siglec-3/CD33 protein, then Streptavidin-PE
Method: Surface expression of CD33 CAR-transduced T cells was determined by flow cytometry using either protein-L (Themo Fisher) or a Biotinylated Human Siglec-3/CD33 Protein (Acro Biosystems, Newark, Del., USA) followed by incubation with Streptavidin-PE (BioLegend, San Diego, Calif., USA). CD123 CAR expression were detected with protein-L. Expression of CD33, CD123 and other cell surface markers were detected using the following antibodies from eBioscience (Thermo Fisher): CD33, CD45, CD3, CD8a, CD4, CD10.
For CD33 CAR detection with Biotinylated Human Siglec-3/CD33 Protein: CAR detection with: add 2 ul of Biotinylated Human Siglec-3/CD33 Protein, [Avi Tag (Avitag™) Acro Biosystems, Newark, Del., USA], incubate for 20 min, wash once and incubate with 0.5 μl of Streptavidin-PE, incubate for additional 10 min, wash once, subject for FACS analysis.

T1 sequence (P20138 18-259 limits assumed): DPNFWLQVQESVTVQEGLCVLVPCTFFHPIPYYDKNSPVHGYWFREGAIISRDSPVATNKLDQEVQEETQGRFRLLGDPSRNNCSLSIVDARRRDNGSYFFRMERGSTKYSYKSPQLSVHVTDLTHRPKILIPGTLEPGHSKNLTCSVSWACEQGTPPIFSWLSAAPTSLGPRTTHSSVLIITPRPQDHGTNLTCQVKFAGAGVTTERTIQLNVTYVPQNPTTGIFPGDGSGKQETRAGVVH

binding result: binds
B1: CD33Hu195-CD28Z CAR (other)
chain: QVQLVQSGAEVKKPGSSVKVSCKASGYTFTDYNMHWVRQAPGQGLEWIGYIYPYNGGTGYNQKFKSKATITADESTNTAYMELSSLRSEDTAVYYCARGRPAMDYWGQGTLVTVSSGGGGSGGGGSGGGGSDIQMTQSPSSLSASVGDRVTITCRASESVDNYGISFMNWFQQKPGKAPKLLIYAASNQGSGVPSRFSGSGSGTDFTLTISSLQPDDFATYYCQQSKEVPWTFGQGTKVEIKSGAAAIEVMYPPPYLDNEKSNGTIIHVKGKHLCPSPLFPGPSKPFWVLVVVGGVLACYSLLVTVAFIIFWVRSKRSRLLHSDYMNMTPRRPGPTRKHYQPYAPPRDFAAYRSRVKFSRSADAPAYQQGQNQLYNELNLGRREEYDVLDKRRGRDPEMGGKPRRKNPQEGLYNELQKDKMAEAYSEIGMKGERRRGKGHDGLYQGLSTATKDTYDALHMQALPPR
notes: CAR on the surface of transduced human T cells; also called CD33.2-28z; CD33.2-CD28z
